We go through 1 molecule from patent JP2024513915A (dated 2024).

The assay has as its target CD33 (UniProt P20138 18-364, limits assumed). The experiment in a line: cell-based or functional assay.

CD33, sequence (P20138 18-364 limits assumed): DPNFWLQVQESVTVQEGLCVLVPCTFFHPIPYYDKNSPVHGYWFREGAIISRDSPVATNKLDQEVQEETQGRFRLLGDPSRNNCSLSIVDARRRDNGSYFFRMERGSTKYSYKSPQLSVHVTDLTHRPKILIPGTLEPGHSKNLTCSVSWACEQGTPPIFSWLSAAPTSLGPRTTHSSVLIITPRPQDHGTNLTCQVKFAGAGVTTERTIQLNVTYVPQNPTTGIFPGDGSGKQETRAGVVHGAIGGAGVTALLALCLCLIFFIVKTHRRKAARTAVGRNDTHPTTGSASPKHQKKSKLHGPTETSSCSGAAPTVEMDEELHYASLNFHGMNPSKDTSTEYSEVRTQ

B1: AMV564 (bispecific antibody)
chain: DIQMTQSPSSLSASVGDRVTITCRSSTGAVTTSNYANWVQQKPGKAPKALIGGTNKRAPGVPSRFSGSLIGDKATLTISSLQPEDFATYYCALWYSNLWVFGQGTKVEIKGGSGGSQVQLVQSGAEVKKPGASVKVSCKASGYTFTSYDINWVRQAPGQGLEWMGWMNPNSGNTGFAQKFQGRVTMTRDTSTSTVYMELSSLRSEDTAVYYCARDRANTDYSLGMDVWGQGTLVTVSSGGSGQSVLTQPPSASGTPGQRVTISCSGSRSNIGSNTVNWYQQLPGTAPKLLIYGNNQRPSGVPDRFSGSKSGTSASLAISGLQSEDEADYYCATWDDSLIGWVFGGGTKLTVLGGSGGSEVQLVESGGGLVQPGGSLRLSCAASGFTFSTYAMNWVRQAPGKGLEWVGRIRSKYNNYATYYADSVKDRFTISRDDSKNSLYLQMNSLKTEDTAVYYCARHGNFGNSYVSYFAYWGQGTLVTVSS
Regarding B1, the “CD4+及びCD8+T細胞増殖” value is over 2 fold.
